# The Immune Epitope Database (IEDB)
# Columns and labels:
# HLA-B*57:01 [1] = experiment: IEDB peptide-MHC binding, purified MHC/competitive/radioactivity; filed as Kd, often an IC50 or EC50 that approximates it; ≥ and ≤ were set here for values at or beyond the usual limits of such assays
# HLA-B*58:01 [2] = experiment: as above
# HLA-A*01:01 [3] = experiment: IEDB peptide-MHC binding, purified MHC/direct/fluorescence; filed as Kd, often an IC50 or EC50 that approximates it; ≥ and ≤ were set here for values at or beyond the usual limits of such assays; conditions: source organism: Orthohantavirus andesense
# HLA-A*02:01 = experiment: as above; conditions: source organism: Orthohantavirus andesense
# HLA-A*02:12 = experiment: as above; conditions: source organism: Orthohantavirus andesense
# HLA-A*03:01 = experiment: as above; conditions: source organism: Orthohantavirus andesense
# HLA-A*11:01 = experiment: as above; conditions: source organism: Orthohantavirus andesense
# HLA-A*29:02 = experiment: as above; conditions: source organism: Orthohantavirus andesense
# HLA-A*31:01 = experiment: as above; conditions: source organism: Orthohantavirus andesense
# HLA-A*68:02 [4] = experiment: as above; conditions: source organism: Orthohantavirus andesense
# HLA-A*69:01 = experiment: as above; conditions: source organism: Orthohantavirus andesense
# HLA-B*07:02 = experiment: as above
# HLA-B*08:01 = experiment: as above; conditions: source organism: Orthohantavirus andesense
# HLA-B*15:01 [5] = experiment: as above; conditions: source organism: Orthohantavirus andesense
# HLA-B*18:01 = experiment: as above; conditions: source organism: Orthohantavirus andesense
# HLA-B*27:05 = experiment: as above; conditions: source organism: Orthohantavirus andesense
# HLA-B*40:01 [6] = experiment: as above; conditions: source organism: Orthohantavirus andesense
# HLA-B*46:01 = experiment: as above; conditions: source organism: Orthohantavirus andesense
# HLA-B*48:01 = experiment: as above; conditions: source organism: Orthohantavirus andesense
# HLA-B*57:01 [7] = experiment: as above; conditions: source organism: Orthohantavirus andesense
# HLA-B*58:01 [8] = experiment: as above; conditions: source organism: Orthohantavirus andesense
# HLA-A*26:01 = experiment: IEDB peptide-MHC binding, purified MHC/competitive/fluorescence; filed as Kd, often an IC50 or EC50 that approximates it; ≥ and ≤ were set here for values at or beyond the usual limits of such assays; conditions: source organism: Orthohantavirus andesense
# HLA-B*15:17 = experiment: as above; conditions: source organism: Orthohantavirus andesense
# HLA-B*27:03 = experiment: as above; conditions: source organism: Orthohantavirus andesense
# HLA-B*39:01 = experiment: as above; conditions: source organism: Orthohantavirus andesense
# HLA-B*51:01 [9] = experiment: as above; conditions: source organism: Orthohantavirus andesense
# HLA-B*53:01 = experiment: IEDB peptide-MHC binding, purified MHC/competitive/radioactivity; filed as Kd, often an IC50 or EC50 that approximates it; ≥ and ≤ were set here for values at or beyond the usual limits of such assays; conditions: source organism: Dengue virus 4 Philippines/H241/1956
# HLA-A*01:01 [10] = experiment: as above
# HLA-A*68:02 [11] = experiment: as above
# HLA-B*40:01 [12] = experiment: IEDB peptide-MHC binding, purified MHC/competitive/fluorescence; filed as Kd, often an IC50 or EC50 that approximates it; ≥ and ≤ were set here for values at or beyond the usual limits of such assays
# HLA-B*51:01 [13] = experiment: IEDB peptide-MHC binding, purified MHC/direct/fluorescence; filed as Kd, often an IC50 or EC50 that approximates it; ≥ and ≤ were set here for values at or beyond the usual limits of such assays
# HLA-B*15:42 = experiment: IEDB peptide-MHC binding, purified MHC/competitive/fluorescence; filed as Kd, often an IC50 or EC50 that approximates it; ≥ and ≤ were set here for values at or beyond the usual limits of such assays; conditions: source organism: Yersinia pestis Nepal516
# HLA-B*45:06 = experiment: as above; conditions: source organism: Yersinia pestis Nepal516
# HLA-B*83:01 = experiment: as above; conditions: source organism: Yersinia pestis Nepal516
# HLA-B*15:01 [14] = experiment: as above; conditions: source organism: Escherichia coli O139:H28 str. E24377A
# [15] = source organism: Dengue virus 3 Martinique/1243/1999
# [16] = source organism: Dengue virus 4 Philippines/H241/1956
# [17] = source organism: Dengue virus 1 Brazil/97-11/1997
# [18] = source organism: Brucella abortus
sequence,measurement,setting,value
GTSLTQKVVI,Kd,HLA-B*57:01 [1]; [15],2300 nM
same,Kd,HLA-B*58:01 [2]; [15],194 nM
SIKFKRKLM,Kd,HLA-A*01:01 [3],≥ 20000 nM
same,Kd,HLA-A*02:01,≥ 20000 nM
same,Kd,HLA-A*02:12,≥ 20000 nM
same,Kd,HLA-A*03:01,≥ 20000 nM
same,Kd,HLA-A*11:01,≥ 20000 nM
same,Kd,HLA-A*29:02,≥ 20000 nM
same,Kd,HLA-A*31:01,≥ 20000 nM
same,Kd,HLA-A*68:02 [4],≥ 20000 nM
same,Kd,HLA-A*69:01,≥ 20000 nM
same,Kd,HLA-B*07:02; source organism: Orthohantavirus andesense,≥ 20000 nM
same,Kd,HLA-B*08:01,≥ 5000 nM
same,Kd,HLA-B*15:01 [5],≥ 20000 nM
same,Kd,HLA-B*18:01,≥ 20000 nM
same,Kd,HLA-B*27:05,≥ 20000 nM
same,Kd,HLA-B*40:01 [6],≥ 20000 nM
same,Kd,HLA-B*46:01,≥ 20000 nM
same,Kd,HLA-B*48:01,≥ 20000 nM
same,Kd,HLA-B*57:01 [7],≥ 20000 nM
same,Kd,HLA-B*58:01 [8],≥ 20000 nM
same,Kd,HLA-A*26:01,≥ 20000 nM
same,Kd,HLA-B*15:17,≥ 20000 nM
same,Kd,HLA-B*27:03,≥ 20000 nM
same,Kd,HLA-B*39:01,≥ 20000 nM
same,Kd,HLA-B*51:01 [9],≥ 20000 nM
ASGKLVTQW,Kd,HLA-B*57:01 [1]; [16],137 nM
same,Kd,HLA-B*58:01 [2]; [16],15.7 nM
IAVASGLLW,Kd,HLA-B*53:01,31.2 nM
same,Kd,HLA-B*57:01 [1]; [16],2.21 nM
same,Kd,HLA-B*58:01 [2]; [16],0.661 nM
LTGGVTLFF,Kd,HLA-A*01:01 [10]; [17],18900 nM
same,Kd,HLA-B*58:01 [2]; [17],107 nM
ESWEEVPYLG,Kd,HLA-B*58:01 [2]; source organism: Dengue virus 2 Jamaica/1409/1983,589 nM
ESSKNQTWQI,Kd,HLA-A*01:01 [10]; [16],≥ 70400 nM
same,Kd,HLA-A*68:02 [11]; [16],701 nM
same,Kd,HLA-B*57:01 [1]; [16],≥ 23000 nM
same,Kd,HLA-B*58:01 [2]; [16],1590 nM
SASSMINGVV,Kd,HLA-A*68:02 [11]; [15],165 nM
same,Kd,HLA-B*57:01 [1]; [15],1990 nM
same,Kd,HLA-B*58:01 [2]; [15],6380 nM
TEAKIISLL,Kd,HLA-B*40:01 [12]; source organism: Shigella flexneri 5 str. 8401,8.1 nM
MPSSYAAGM,Kd,HLA-B*51:01 [13]; source organism: Giardia lamblia ATCC 50803,863 nM
LPAIIRPSF,Kd,HLA-B*07:02; [18],104 nM
same,Kd,HLA-B*51:01 [13]; [18],≥ 20000 nM
QELSDAPFL,Kd,HLA-B*40:01 [12]; source organism: Influenza A virus (A/Hokkaido/20/89(H3N2)),2 nM
AEYLYADGI,Kd,HLA-B*15:42,≥ 5000 nM
same,Kd,HLA-B*40:01 [12]; source organism: Yersinia pestis Nepal516,4.3 nM
same,Kd,HLA-B*45:06,≥ 5000 nM
same,Kd,HLA-B*83:01,≥ 5000 nM
AENHFLVGL,Kd,HLA-B*15:01 [14],≥ 20000 nM
same,Kd,HLA-B*40:01 [12]; source organism: Escherichia coli O139:H28 str. E24377A,2.5 nM
VASAAQRRGR,Kd,HLA-B*58:01 [2]; [17],160 nM
AEIEDLIFL,Kd,HLA-B*40:01 [12]; source organism: Influenza A virus (A/swine/Italy/1509-6/97(H1N1)),0.5 nM
GADTSEVHW,Kd,HLA-B*57:01 [1]; [16],987 nM
same,Kd,HLA-B*58:01 [2]; [16],66.3 nM
QTQRSGVLW,Kd,HLA-B*57:01 [1]; [15],18.7 nM
same,Kd,HLA-B*58:01 [2]; [15],1.47 nM
